Consider eleven variants from IntAct's records for PubMed 31515488.

B1: Elongin-A2 (Homo sapiens), Q8IYF1 (parent)
chain: MAAGSTTLHAVEKLQVRLATKTEPKKLEKYLQKLSALPMTADILAETGIRKTVKRLRKHQHVGDFARDLAARWKKLVLVDRNTRPGPQDPEESASRQRFGEALQDQEKAWGFPENATAPRSPSHSPEHRRTARRTPPGQQRPHPRSHSREPRAERKCPRIAPADSGRYRASPTRTAPLRMPEGPEPAAPGKQPGRGHTHAAQGGPLLCPGCQGQPQGKAVVSHSKGHKSSRQEKRPLCAQGDWHSPTLIREKSCGACLREETPRMPSWASARDRQPSDFKTDKEGGQAGSGQRVPALEEAPDSHQKRPQHSHSNKKRPSLDGRDPGNGTHGLSPEEKEQLSNDRETQEGKPPTAHLDRTSVSSLSEVEEVDMAEEFEQPTLSCEKYLTYDQLRKQKKKTGKSATTALGDKQRKANESKGTRESWDSAKKLPPVQESQSERLQAAGADSAGPKTVPSHVFSELWDLSEAWMQANYDPLSDSDSMTSQAKPEALSSPKFREEAAFPGRRVNAKMPVYSGSRPACQLQVPTLRQQCAQVLRNNPDALSDVGEVPYWVLEPVLEGWRPDQLYRRKKDNHALVRETDELRRNHCFQDFKEEKPQENKTWREQYLRLPDAPEQRLRVMTTNIRSARGNNPNGREAKMICFKSVAKTPYDTSRRQEKSAGDADPENGEIKPASKPAGSSHTPSSQSSSGGGRDSSSSILRWLPEKRANPCLSSSNEHAAPAAKTRKQAAKKVAPLMAKAIRDYKRRFSRR
B2: Zinc finger protein 544 (Homo sapiens), Q6NX49 (parent)
chain: MEARSMLVPPQASVCFEDVAMAFTQEEWEQLDLAQRTLYREVTLETWEHIVSLGLFLSKSDVISQLEQEEDLCRAEQEAPRDWKATLEENRLNSEKDRAREELSHHVEVYRSGPEEPPSLVLGKVQDQSNQLREHQENSLRFMVLTSERLFAQREHCELELGGGYSLPSTLSLLPTTLPTSTGFPKPNSQVKELKQNSAFINHEKNGADGKHCESHQCARAFCQSIYLSKLGNVETGKKNPYEYIVSGDSLNYGSSLCFHGRTFSVKKSDDCKDYGNLFSHSVSLNEQKPVHFGKSQYECDECRETCSESLCLVQTERSGPGETPFRCEERCAAFPMASSFSDCNIIQTTEKPSVCNQCGKSFSCCKLIHQRTHTGEKPFECTQCGKSFSQSYDLVIHQRTHTGEKPYECDLCGKSFTQRSKLITHQRIHTGEKPYQCIECRKSFRWNSNLIVHQRIHTGEKPYECTHCGKSFSQSYELVTHKRTHTGEKPFKCTQCGKSFSQKYDLVVHQRTHTGEKPYECNLCGKSFSQSSKLITHQRIHTGEKPYQCIECGKSFRWNSNLVIHQRIHTGEKPYDCTHCGKSFSQSYQLVAHKRTHTGEKPYECNECGKAFNRSTQLIRHLQIHTGEKPYKCNQCNKAFARSSYLVMHQRTHTGEKPFECSQCGKAFSGSSNLLSHHRIHSGEKPYECSDCGKSFRQQSQLVVHRRTHTGEKP
B3: Protein unc-50 homolog (Homo sapiens), Q53HI1 (parent)
chain: MLPSTSVNSLVQGNGVLNSRDAARHTAGAKRYKYLRRLFRFRQMDFEFAAWQMLYLFTSPQRVYRNFHYRKQTKDQWARDDPAFLVLLSIWLCVSTIGFGFVLDMGFFETIKLLLWVVLIDCVGVGLLIATLMWFISNKYLVKRQSRDYDVEWGYAFDVHLNAFYPLLVILHFIQLFFINHVILTDTFIGYLVGNTLWLVAVGYYIYVTFLGYSALPFLKNTVILLYPFAPLILLYGLSLALGWNFTHTLCSFYKYRVK
partner: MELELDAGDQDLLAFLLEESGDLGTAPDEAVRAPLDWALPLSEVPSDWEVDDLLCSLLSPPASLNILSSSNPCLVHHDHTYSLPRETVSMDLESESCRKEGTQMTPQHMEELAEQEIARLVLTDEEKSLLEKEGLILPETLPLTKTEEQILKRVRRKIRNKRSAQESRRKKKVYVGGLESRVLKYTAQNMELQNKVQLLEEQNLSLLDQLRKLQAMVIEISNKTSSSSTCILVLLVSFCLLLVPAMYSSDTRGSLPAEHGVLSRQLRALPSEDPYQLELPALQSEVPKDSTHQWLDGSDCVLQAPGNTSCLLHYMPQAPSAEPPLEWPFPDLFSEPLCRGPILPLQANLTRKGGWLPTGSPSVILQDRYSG
B4: FXYD domain-containing ion transport regulator 3 (Homo sapiens), Q14802 (parent)
chain: MQKVTLGLLVFLAGFPVLDANDLEDKNSPFYYDWHSLQVGGLICAGVLCAMGIIIVMSAKCKCKFGQKSGHHPGETPPLITPGSAQS
partner: B3 partner

The first experiment covers variants of B1. The note with it: with traf2_human TRAF2, Q12933.
Target sequence in this assay (Q12933 whole entry): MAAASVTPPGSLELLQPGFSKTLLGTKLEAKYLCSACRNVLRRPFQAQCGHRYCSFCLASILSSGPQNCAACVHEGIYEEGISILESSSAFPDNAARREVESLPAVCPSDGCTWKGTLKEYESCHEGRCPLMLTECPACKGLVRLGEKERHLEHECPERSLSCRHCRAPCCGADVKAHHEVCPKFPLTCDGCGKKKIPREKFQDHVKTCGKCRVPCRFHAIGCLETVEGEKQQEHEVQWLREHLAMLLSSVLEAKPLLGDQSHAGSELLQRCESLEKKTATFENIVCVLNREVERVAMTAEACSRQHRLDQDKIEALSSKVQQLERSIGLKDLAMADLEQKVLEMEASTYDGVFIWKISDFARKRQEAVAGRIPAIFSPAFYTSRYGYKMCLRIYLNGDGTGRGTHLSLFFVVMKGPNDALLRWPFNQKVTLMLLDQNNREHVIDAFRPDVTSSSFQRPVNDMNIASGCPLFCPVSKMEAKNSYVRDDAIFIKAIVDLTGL
For D302H, the “effect of a mutation on the interaction” value is listed as “with no effect”.

For A403S, the “effect of a mutation on the interaction” value was “with no effect”.

Take T6S: the “effect of a mutation on the interaction” value is listed as “with no effect”.

For the variant G505R, the “effect of a mutation on the interaction” value is listed as “with no effect”.

Turning to R179P, the “effect of a mutation on the interaction” value is “with no effect”.

On to C254F, for which the “effect of a mutation on the interaction” value was “with no effect”.

R498Q: the “effect of a mutation on the interaction” value is listed as “with no effect”.

Regarding A446T, the “effect of a mutation on the interaction” value is reported as “with no effect”.

A further experiment covers variants of B2. The conditions noted are these: with traf2_human TRAF2, Q12933.
Target sequence in this assay (Q12933 whole entry): as above
As to K406M, the “effect of a mutation on the interaction” value is given as “disrupting interaction strength”.

In a further experiment the parent is B3. The conditions noted are these: with creb3_human CREB3, O43889.
For the variant S214G, the “effect of a mutation on the interaction” value is reported as “with no effect”.

Variants of B4 are the subject of the next experiment. The note with it: with creb3_human CREB3, O43889.
Turning to G40S, the “effect of a mutation on the interaction” value was “disrupting interaction strength”.
